Measured values published in patent US20250207119A1.

Assays:
Assay in all cases: cell-based or functional assay
MMP 3 = MMP 3 (UniProt P08254)
MMP 9 = MMP 9 (UniProt P14780)
[1] = target: ADAM17 from R & D Systems (UniProt P78536)
[2] = target: Meprin from R & D Systems
ADAM9 from R & D Systems = ADAM9 from R & D Systems (UniProt Q13443)
MMP 2 = MMP 2 (UniProt P08253)
MMP 14 = MMP 14 (UniProt P50281)
MMP 12 = MMP 12 (UniProt P39900)
[3] = target: Human ADAM10 from R & D Systems (human) (UniProt O14672)
Chain of Human ADAM10 from R & D Systems (human) (O14672 214-672 limits assumed): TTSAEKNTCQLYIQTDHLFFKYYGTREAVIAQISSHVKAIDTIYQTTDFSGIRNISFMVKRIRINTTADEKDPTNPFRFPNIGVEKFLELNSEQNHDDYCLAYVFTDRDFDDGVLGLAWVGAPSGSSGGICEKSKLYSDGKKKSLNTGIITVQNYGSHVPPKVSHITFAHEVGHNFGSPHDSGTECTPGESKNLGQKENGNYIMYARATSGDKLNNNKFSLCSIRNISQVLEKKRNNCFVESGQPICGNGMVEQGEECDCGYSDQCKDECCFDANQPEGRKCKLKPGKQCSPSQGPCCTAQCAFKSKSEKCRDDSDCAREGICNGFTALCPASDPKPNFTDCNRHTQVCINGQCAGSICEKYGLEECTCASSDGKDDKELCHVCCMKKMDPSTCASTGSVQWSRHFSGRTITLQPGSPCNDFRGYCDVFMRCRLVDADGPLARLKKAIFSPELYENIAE

Chain of ADAM9 from R & D Systems (Q13443 29-697 limits assumed): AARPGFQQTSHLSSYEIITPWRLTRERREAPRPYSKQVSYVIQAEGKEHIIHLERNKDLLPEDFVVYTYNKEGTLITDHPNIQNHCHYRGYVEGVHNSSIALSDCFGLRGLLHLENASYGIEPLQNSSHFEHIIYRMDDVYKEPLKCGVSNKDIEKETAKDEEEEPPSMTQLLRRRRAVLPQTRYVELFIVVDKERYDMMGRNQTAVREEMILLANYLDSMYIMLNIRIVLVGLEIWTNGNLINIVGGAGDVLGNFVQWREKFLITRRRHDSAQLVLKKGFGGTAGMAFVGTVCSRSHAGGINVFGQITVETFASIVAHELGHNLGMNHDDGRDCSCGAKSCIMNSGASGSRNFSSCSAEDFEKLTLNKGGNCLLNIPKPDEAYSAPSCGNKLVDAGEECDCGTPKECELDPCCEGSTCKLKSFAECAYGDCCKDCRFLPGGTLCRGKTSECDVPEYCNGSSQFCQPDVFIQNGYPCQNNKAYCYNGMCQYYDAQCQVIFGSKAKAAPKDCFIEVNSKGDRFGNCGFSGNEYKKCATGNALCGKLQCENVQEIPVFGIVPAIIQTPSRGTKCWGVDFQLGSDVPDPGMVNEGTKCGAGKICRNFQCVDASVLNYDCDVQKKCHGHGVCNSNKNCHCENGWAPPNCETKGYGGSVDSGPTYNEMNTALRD
Chain of ADAM17 from R & D Systems (P78536 215-671 limits assumed): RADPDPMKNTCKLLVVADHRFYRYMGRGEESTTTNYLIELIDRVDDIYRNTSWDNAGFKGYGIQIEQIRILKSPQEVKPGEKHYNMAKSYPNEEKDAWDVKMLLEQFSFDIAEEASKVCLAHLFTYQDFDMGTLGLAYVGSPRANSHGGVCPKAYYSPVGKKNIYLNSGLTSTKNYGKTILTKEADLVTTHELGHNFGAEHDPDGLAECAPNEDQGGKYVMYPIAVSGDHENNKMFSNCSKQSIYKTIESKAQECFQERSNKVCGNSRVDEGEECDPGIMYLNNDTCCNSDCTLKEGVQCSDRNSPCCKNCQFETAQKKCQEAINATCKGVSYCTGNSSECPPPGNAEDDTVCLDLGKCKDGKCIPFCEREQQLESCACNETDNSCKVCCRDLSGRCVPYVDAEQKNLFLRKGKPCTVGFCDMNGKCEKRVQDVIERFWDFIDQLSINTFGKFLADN
Chain of MMP 12 (P39900 17-470 limits assumed): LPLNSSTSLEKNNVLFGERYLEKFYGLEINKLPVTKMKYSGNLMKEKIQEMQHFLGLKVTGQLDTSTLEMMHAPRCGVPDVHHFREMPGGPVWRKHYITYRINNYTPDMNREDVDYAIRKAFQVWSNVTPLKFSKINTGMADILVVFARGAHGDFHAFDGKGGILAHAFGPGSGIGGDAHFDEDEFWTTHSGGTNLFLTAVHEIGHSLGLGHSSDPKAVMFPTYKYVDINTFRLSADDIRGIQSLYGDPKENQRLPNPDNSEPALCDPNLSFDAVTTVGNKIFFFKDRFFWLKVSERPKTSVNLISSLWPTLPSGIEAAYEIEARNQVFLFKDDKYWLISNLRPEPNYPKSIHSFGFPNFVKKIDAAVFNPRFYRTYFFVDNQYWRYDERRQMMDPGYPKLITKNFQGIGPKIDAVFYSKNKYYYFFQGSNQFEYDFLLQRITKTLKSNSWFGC
Chain of MMP 2 (P08253 30-660 limits assumed): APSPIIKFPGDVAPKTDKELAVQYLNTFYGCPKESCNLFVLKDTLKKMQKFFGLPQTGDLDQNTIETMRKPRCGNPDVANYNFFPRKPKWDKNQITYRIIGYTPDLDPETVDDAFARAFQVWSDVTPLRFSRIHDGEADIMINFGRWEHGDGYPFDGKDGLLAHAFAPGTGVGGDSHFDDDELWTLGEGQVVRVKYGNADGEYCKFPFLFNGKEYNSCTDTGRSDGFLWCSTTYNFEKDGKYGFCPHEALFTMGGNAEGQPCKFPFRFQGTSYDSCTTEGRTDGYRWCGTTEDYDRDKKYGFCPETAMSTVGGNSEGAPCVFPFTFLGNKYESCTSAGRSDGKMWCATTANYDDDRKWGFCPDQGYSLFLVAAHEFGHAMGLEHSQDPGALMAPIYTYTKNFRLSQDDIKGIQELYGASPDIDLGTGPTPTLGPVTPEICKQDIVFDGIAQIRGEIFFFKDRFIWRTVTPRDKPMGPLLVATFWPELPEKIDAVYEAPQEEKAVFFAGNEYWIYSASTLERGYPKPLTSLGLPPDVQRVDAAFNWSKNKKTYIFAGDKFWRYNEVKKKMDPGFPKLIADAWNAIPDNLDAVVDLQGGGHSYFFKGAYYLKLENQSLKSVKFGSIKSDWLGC
Chain of MMP 9 (P14780 20-707 limits assumed): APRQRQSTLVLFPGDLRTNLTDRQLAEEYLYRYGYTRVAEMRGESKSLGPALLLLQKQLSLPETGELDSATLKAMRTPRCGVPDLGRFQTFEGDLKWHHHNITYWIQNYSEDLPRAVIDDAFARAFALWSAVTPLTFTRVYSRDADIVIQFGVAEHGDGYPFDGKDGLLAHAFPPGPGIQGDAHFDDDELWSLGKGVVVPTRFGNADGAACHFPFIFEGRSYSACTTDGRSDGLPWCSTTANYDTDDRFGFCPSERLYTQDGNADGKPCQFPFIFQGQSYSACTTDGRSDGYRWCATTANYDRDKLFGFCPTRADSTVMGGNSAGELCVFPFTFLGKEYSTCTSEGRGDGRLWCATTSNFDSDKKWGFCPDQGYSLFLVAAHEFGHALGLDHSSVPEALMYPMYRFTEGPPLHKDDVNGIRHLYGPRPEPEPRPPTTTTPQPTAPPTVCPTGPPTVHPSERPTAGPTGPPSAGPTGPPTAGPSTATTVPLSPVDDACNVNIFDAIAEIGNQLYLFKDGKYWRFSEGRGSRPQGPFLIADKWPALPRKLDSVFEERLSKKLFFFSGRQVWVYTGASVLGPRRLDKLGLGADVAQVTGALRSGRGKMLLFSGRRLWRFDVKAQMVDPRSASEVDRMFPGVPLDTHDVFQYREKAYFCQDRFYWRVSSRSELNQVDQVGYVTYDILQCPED
Chain of MMP 3 (P08254 18-477 limits assumed): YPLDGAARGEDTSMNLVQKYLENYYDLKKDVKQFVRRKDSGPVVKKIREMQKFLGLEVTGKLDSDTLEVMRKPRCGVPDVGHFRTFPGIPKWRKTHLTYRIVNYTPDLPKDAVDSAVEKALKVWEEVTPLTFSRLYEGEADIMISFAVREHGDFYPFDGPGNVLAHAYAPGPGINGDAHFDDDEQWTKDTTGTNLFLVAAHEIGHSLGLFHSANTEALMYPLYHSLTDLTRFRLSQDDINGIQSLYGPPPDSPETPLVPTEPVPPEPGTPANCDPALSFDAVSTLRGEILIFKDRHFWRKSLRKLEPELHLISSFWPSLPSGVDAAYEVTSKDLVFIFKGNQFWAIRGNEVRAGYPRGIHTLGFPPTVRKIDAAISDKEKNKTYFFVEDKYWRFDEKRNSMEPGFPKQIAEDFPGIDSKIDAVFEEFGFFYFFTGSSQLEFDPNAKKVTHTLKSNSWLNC

Substance: SEQ ID NO: 1 (human wild type ADAM10 prodomain peptide, amino acids 23-211 of NP_001101.1)
- percent inhibition of MMP activity (PEPDAB008 substrate) (MMP 3): 0 % at 8 µM
- percent inhibition of MMP activity (PEPDAB008 substrate) (MMP 9): 0 % at 8 µM
- percent inhibition of ADAM17 activity [1]: 28 % at 8 µM
- IC50 (nM), inhibition of meprin cleavage of the fluorescent substrate PEPDAB022 [2]: 185 nM
- percent inhibition of ADAM9 activity (ADAM9 from R & D Systems): 0 % at 8 µM
- percent inhibition of MMP activity (PEPDAB008 substrate) (MMP 2): 0 % at 8 µM
- percent inhibition of MMP activity (PEPDAB008 substrate) (MMP 14): 0 % at 8 µM
- percent inhibition of MMP activity (PEPDAB008 substrate) (MMP 12): 0 % at 8 µM
- IC50 (nM), inhibition of ADAM10 cleavage of the fluorescent substrate PEPDAB064 [3]: 17 nM
